Laboratory results reported in the supplement of paper PMC5998384.

Key:
HeLa Kyoto [1] = test: thermal stability score vs G1/S (z-score of summed log2 fold changes over temperatures); higher = more thermally stable than in G1/S
HeLa Kyoto [2] = test: solubility change mitosis vs G1/S (difference of NP-40 vs SDS log2 ratios) (log2 ratio difference); higher = more soluble in mitosis
HeLa Kyoto [3] = test: melting temperature (median over replicates), in situ; higher = more thermally stable
HeLa Kyoto [4] = test: solubility in G1/S (NP-40 vs SDS abundance) (log2 ratio); higher = more soluble; settings: cell cycle stage: G1/S
[5] = cell cycle stage: early G1 (4.5 h after nocodazole release)
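Throughout, for melting temperature (median over replicates), in situ: HeLa Kyoto cells synchronized by double thymidine or nocodazole block, proteins quantified by TMT10plex mass spectrometry, three independent biological replicates.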
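Throughout, for solubility change mitosis vs G1/S (difference of NP-40 vs SDS log2 ratios): synchronized HeLa Kyoto cells (double thymidine block for G1/S, nocodazole release for mitosis), protein amounts in NP-40 versus SDS lysates quantified by mass spectrometry, three biological replicates.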
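Throughout, for solubility in G1/S (NP-40 vs SDS abundance): HeLa Kyoto cells arrested at G1/S by double thymidine block, proteins quantified by TMT10plex mass spectrometry in mild NP-40 versus SDS extracts, three biological replicates.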
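Throughout, for thermal stability score vs G1/S (z-score of summed log2 fold changes over temperatures): synchronized HeLa Kyoto cells, proteins quantified by TMT10plex mass spectrometry, three biological replicates, mitosis taken 0.5 h after nocodazole release, G1/S directly after double thymidine block.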

Sequence | thermal stability score (HeLa Kyoto [1]; [5]) | thermal stability score (HeLa Kyoto [1]; cell cycle stage: mitosis) | solubility change mitosis (log2) (HeLa Kyoto [2]) | melting temperature (HeLa Kyoto [3]; cell cycle stage: G1/S) [°C] | melting temperature (HeLa Kyoto [3]; cell cycle stage: mitosis) [°C] | solubility in G1/S (log2) (HeLa Kyoto [4])
MAAAGAPDGMEEPGMDTEAETVATEAPARPVNCLEAEAAAGAAAEDSGAARGSLQPAPAQPPGDPAAQASVSNGEDAGGGAGRELVDLKIIWNKTKHDVKFPLDSTGSELKQKIHSITGLPPAMQKVMYKGLVPEDKTLREIKVTSGAKIMVVGSTINDVLAVNTPKDAAQQDAKAEENKKEPLCRQKQHRKVLDKGKPEDVMPSVKGAQERLPTVPLSGMYNKSGGKVRLTFKLEQDQLWIGTKERTEKLPMGSIKNVVSEPIEGHEDYHMMAFQLGPTEASYYWVYWVPTQYVDAIKDTVLGKWQYF [UBFD1] | -0.222 | -0.699 | 0.0325 | 51.5 | 52.1 | 0.522
MAAAGGARLLRAASAVLGGPAGRWLHHAGSRAGSSGLLRNRGPGGSAEASRSLSVSARARSSSEDKITVHFINRDGETLTTKGKVGDSLLDVVVENNLDIDGFGACEGTLACSTCHLIFEDHIYEKLDAITDEENDMLDLAYGLTDRSRLGCQICLTKSMDNMTVRVPETVADARQSIDVGKTS [FDX1] | -0.691 | -1.73 | -0.0683 | 53 | 53.9 | 0.338
MAAAGGGGGGAAAAGRAYSFKVVLLGEGCVGKTSLVLRYCENKFNDKHITTLQASFLTKKLNIGGKRVNLAIWDTAGQERFHALGPIYYRDSNGAILVYDITDEDSFQKVKNWVKELRKMLGNEICLCIVGNKIDLEKERHVSIQEAESYAESVGAKHYHTSAKQNKGIEELFLDLCKRMIETAQVDERAKGNGSSQPGTARRGVQIIDDEPQAQTSGGGCCSSG [RAB21] | -1.73 | -1.92 | -0.0826 | 60.4 | 60.5 | 0.158
MAAAGQLCLLYLSAGLLSRLGAAFNLDTREDNVIRKYGDPGSLFGFSLAMHWQLQPEDKRLLLVGAPRAEALPLQRANRTGGLYSCDITARGPCTRIEFDNDADPTSESKEDQWMGVTVQSQGPGGKVVTCAHRYEKRQHVNTKQESRDIFGRCYVLSQNLRIEDDMDGGDWSFCDGRLRGHEKFGSCQQGVAATFTKDFHYIVFGAPGTYNWKGIVRVEQKNNTFFDMNIFEDGPYEVGGETEHDESLVPVPANSYLGLLFLTSVSYTDPDQFVYKTRPPREQPDTFPDVMMNSYLGFSLDSGKGIVSKDEITFVSGAPRANHSGAVVLLKRDMKSAHLLPEHIFDGEGLASSFGYDVAVVDLNKDGWQDIVIGAPQYFDRDGEVGGAVYVYMNQQGRWNNVKPIRLNGTKDSMFGIAVKNIGDINQDGYPDIAVGAPYDDLGKVFIYHGSANGINTKPTQVLKGISPYFGYSIAGNMDLDRNSYPDVAVGSLSDSVTIFRSRPVINIQKTITVTPNRIDLRQKTACGAPSGICLQVKSCFEYTANPAGYNPSISIVGTLEAEKERRKSGLSSRVQFRNQGSEPKYTQELTLKRQKQKVCMEETLWLQDNIRDKLRPIPITASVEIQEPSSRRRVNSLPEVLPILNSDEPKTAHIDVHFLKEGCGDDNVCNSNLKLEYKFCTREGNQDKFSYLPIQKGVPELVLKDQKDIALEITVTNSPSNPRNPTKDGDDAHEAKLIATFPDTLTYSAYRELRAFPEKQLSCVANQNGSQADCELGNPFKRNSNVTFYLVLSTTEVTFDTPDLDINLKLETTSNQDNLAPITAKAKVVIELLLSVSGVAKPSQVYFGGTVVGEQAMKSEDEVGSLIEYEFRVINLGKPLTNLGTATLNIQWPKEISNGKWLLYLVKVESKGLEKVTCEPQKEINSLNLTESHNSRKKREITEKQIDDNRKFSLFAERKYQTLNCSVNVNCVNIRCPLRGLDSKASLILRSRLWNSTFLEEYSKLNYLDILMRAFIDVTAAAENIRLPNAGTQVRVTVFPSKTVAQYSGVPWWIILVAILAGILMLALLVFILWKCGFFKRSRYDDSVPRYHAVRIRKEEREIKDEKYIDNLEKKQWITKWNENESYS [ITGA6] | -2.3 | -1.75 | -0.116 | 55.4 | 55.6 | 0.154
MAAAMVPGRSESWERGEPGRPALYFCGSIRGGREDRTLYERIVSRLRRFGTVLTEHVAAAELGARGEEAAGGDRLIHEQDLEWLQQADVVVAEVTQPSLGVGYELGRAVAFNKRILCLFRPQSGRVLSAMIRGAADGSRFQVWDYEEGEVEALLDRYFEADPPGQVAASPDPTT [DNPH1] | -1.99 | -2.01 | 0.00918 | 55.3 | 55.3 | 0.392
